One molecule from patent US20240409619A1 (WISTAR INSTITUTE OF ANATOMY AND BIOLOGY, published 2024) can be followed below.

This assay addresses SARS-COV-2 spike protein, isolate USA-WA1/2020, on pseudotyped virus (SARS-COV-2, UniProt P0DTC2 14-1273). Briefly: cell-based or functional assay.

B1: DMAb 2381_FcWT (antibody, V domains shown)
VH: QMQLVQSGPEVKKPGTSVKVSCKASGFTFTSSAVQWVRQARGQRLEWIGWIAVGSGNTNYAQKFQERVSITRDMSTSTAYMELSSLRSEDTAVYYCAAPYCSRTSCHDAFDIWGQGTKVTVSS
VL: EVVLTQSPGTLSLSPGERATLSCRASQSVSSSYLAWYQQKPGQAPRLLIYGASSRATGIPDRFSGSGSGTDFTLTISRLEPEDFAVYHCQHFGSSSQWTFGQGTKVEIKR
Consider B1, for which the “neutralization potency (IC50) of serum against pseudotyped virus” value is under 5 ng/mL.
